{"source": "patent US20180112192A1", "about": "(NATIONAL TAIWAN UNIVERSITY, published 2018)", "binders": {"B1": {"name": "myc-fused full-length PINK1 construct (amino acids 1-581) (enzyme)", "chain": "MAVRQALGRGLQLGRALLLRFTGKPGRAYGLGRPGPAAGCVRGERPGWAAGPGAEPRRVGLGLPNRLRFFRQSVAGLAARLQRQFVVRAWGCAGPCGRAVFLAFGLGLGLIEEKQAESRRAVSACQEIQAIFTQKSKPGPDPLDTRRLQGFRLEEYLIGQSIGKGCSAAVYEATMPTLPQNLEVTKSTGLLPGRGPGTSAPGEGQERAPGAPAFPLAIKMMWNISAGSSSEAILNTMSQELVPASRVALAGEYGAVTYRKSKRGPKQLAPHPNIIRVLRAFTSSVPLLPGALVDYPDVLPSRLHPEGLGHGRTLFLVMKNYPCTLRQYLCVNTPSPRLAAMMLLQLLEGVDHLVQQGIAHRDLKSDNILVELDPDGCPWLVIADFGCCLADESIGLQLPFSSWYVDRGGNGCLMAPEVSTARPGPRAVIDYSKADAWAVGAIAYEIFGLVNPFYGQGKAHLESRSYQEAQLPALPESVPPDVRQLVRALLQREASKRPSARVAANVLHLSLWGEHILALKNLKLDKMVGWLLQQSAATLLANRLTEKCCVETKMKMLFLANLECETLCQAALLLCSWRAAL", "notes": "also called PINK1-myc; not shown: myc tag"}}, "molecular_target": "T1, Wild-type EGFR-GFP (UniProt P00533 25-1210)", "T1 construct": "whole, on cells; not shown: GFP fusion", "assay": "co-localization by confocal and 3D-SIM microscopy, co-overexpression in CL1-5 cells (FIG. 1C)", "text": "FIGS. 1A-1C show interaction between PINK1 and EGFR in lung adenocarcinoma cells. […] 3D-structured illumination microscopy images specifically disclosed the interaction beneath the cytoplasmic membrane (III and IV)."}
{"binder": "B1", "values": [{"measurement": "binding result", "result": "binds"}]}
